The source of these data is article PMC11906892.

One data set has as its target ZYG11B (Homo sapiens, UniProt Q9C0D3 445-728). Kind of data set: ITC. (Isothermal titration calorimetry measures the heat released or taken up as one component is titrated into another.)
The target in a further data set is ZER1 (ZYG11BL) (Homo sapiens, UniProt Q7Z7L7 520-766). Kind of data set: ITC.
ZER1 (ZYG11BL), sequence (Q7Z7L7 520-766): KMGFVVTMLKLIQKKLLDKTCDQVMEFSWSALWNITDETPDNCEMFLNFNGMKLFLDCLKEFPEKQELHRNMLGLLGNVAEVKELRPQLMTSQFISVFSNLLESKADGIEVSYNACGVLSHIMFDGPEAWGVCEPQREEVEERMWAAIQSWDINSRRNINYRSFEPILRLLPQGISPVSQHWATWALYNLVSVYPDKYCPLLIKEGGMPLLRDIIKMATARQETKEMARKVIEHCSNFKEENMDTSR

ZYG11B, sequence (Q9C0D3 445-728): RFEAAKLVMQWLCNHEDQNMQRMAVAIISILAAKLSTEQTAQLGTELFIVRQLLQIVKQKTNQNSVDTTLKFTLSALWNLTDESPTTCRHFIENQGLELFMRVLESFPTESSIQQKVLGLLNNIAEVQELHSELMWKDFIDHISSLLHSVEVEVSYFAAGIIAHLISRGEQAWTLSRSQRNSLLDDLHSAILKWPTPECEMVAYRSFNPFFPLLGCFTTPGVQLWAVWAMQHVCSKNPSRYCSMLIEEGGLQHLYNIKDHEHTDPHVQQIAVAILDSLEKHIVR

As for TCACCCGGTTGGGGCACACGTCTTGTTGATGGCTGC (ssDNA) [Apt#Z6], the Kd with ZYG11B stood at 4.69 ± 2.19 µM. In the data set with ZER1 (ZYG11BL), the binding result is recorded as “no binding”.

For orientation: Kd means the concentration at which binding is half-saturated.
